Test results: patent publication US10208288B2, “Differentiation of human embryonic stem cells into pancreatic endocrine cells” (Janssen Biotech, Inc., priority 2012, dated 2019)

Test system: cells of the human embryonic stem cell line H1 differentiated to stage 5
Test: Real-time PCR of pancreatic endoderm/endocrine genes after factors spiked into stage 5 media
Format: cell-based
Settings: for expression of somatostatin / expression of ghrelin / expression of glucagon: 20 ng/ml at S5, mRNA at day 3 of S5, vs control; for expression of somatostatin: FIG. 1B; for expression of ghrelin: FIG. 1C; for expression of glucagon: FIG. 1D; for mRNA expression of insulin / mRNA expression of NKX6.1: factor spiked at day 1 of stage 5, mRNA at day 3 of S5, vs control cultures, Table I: Ephrin-A4 100 ng/ml; for mRNA expression of insulin: Activin A and Activin C 20 ng/ml, FIG. 1A; for expression of hormones / mRNA expression of NKX6.1: Semaphorin 3a 50 ng/ml; for expression of hormones: Epigen 20 ng/ml at S5, compared to untreated cultures; for mRNA expression of NKX6.1: Epigen 20 ng/ml, FIG. 1F
Description: Cells of the human embryonic stem cell line H1 (hESC H1, passage 40) were seeded as single cells at 1×10^5 cells/cm^2 on MATRIGEL™ (1:30 dilution; BD Biosciences, NJ)-coated dishes in mTeSR®1 media (StemCell Technologies, Vancouver, Canada) supplemented with 10 μM of Y27632 (Rock inhibitor, Catalog No. Y0503, SigmaAldrich, St. Louis, Mo.). Forty-eight hours post seeding, cultures were washed in incomplete PBS (phosphate buffered saline without Mg or Ca). Cultures were differentiated into pancreatic endoderm/endocrine lineages as follows: • a) Stage 1 (Definitive Endoderm (DE)—3 days): Cells were cultured for one day in stage 1 media: MCDB-131 medium (Catalog No. 10372-019, Invitrogen, Carlsbad, Calif.) supplemented with 0.1% fatty acid-free BSA (Catalog No. 68700, Proliant, Ankeny, Iowa), 0.0012 g/ml sodium bicarbonate (Catalog No. S3187, SigmaAldrich, St. Louis, Mo.), 1× GlutaMax™ (Invitrogen Catalog No. 35050-079), 4.5 mM D-Glucose (SigmaAldrich Catalog No. G8769), 100 ng/ml GDF8 (R&D Systems, Minneapolis, Minn.) and 1 μM MCX compound (a GSK3B inhibitor, 14-Prop-2-en-1-yl-3,5,7,14,17,23,27-heptaazatetracyclo [19.3.1.1˜2,6˜0.1˜8,12˜]heptacosa-1(25),2(27),3,5,8(26),9,11,21,23-nonaen-16-one, US Patent Application Publication No. 2010-0015711; incorporated herein by reference in its entirety). Cells were then cultured for additional day in MCDB-131 medium supplemented with 0.1% fatty acid-free BSA, 0.0012 g/ml sodium bicarbonate, 1× GlutaMax™, 4.5 mM D-Glucose, 100 ng/ml GDF8, and 0.1 μM MCX compound. Cells were then cultured for an additional day in MCDB-131 medium supplemented with 0.1% fatty acid-free BSA, 0.0012 g/ml sodium bicarbonate, 1× GlutaMax™, 4.5 mM D-Glucose, and 100 ng/ml GDF8, then • b) Stage 2 (Primitive gut tube—2 days): Cells were treated for two days with MCDB-131 medium supplemented with 0.1% fatty acid-free BSA; 0.0012 g/ml sodium bicarbonate; 1× GlutaMax™; 4.5 mM D-Glucose; 0.25 mM ascorbic acid (Sigma, St. Louis, Mo.) and 25 ng/ml FGF7 (R & D Systems, Minneapolis, Minn.), then • c) Stage 3 (Foregut—2 days): Cells were treated with MCDB-131 medium supplemented with a 1:200 dilution of ITS-X (Invitrogen); 4.5 mM Glucose; 1× GlutaMax™; 0.0017 g/ml sodium bicarbonate; 2% fatty acid-free BSA; 0.25 μM SANT-1 (Sigma, St. Louis, Mo.); 10 ng/ml of Activin-A (R & D Systems); 1 μM retinoic acid (RA; Sigma); 25 ng/ml FGF7; 0.25 mM ascorbic acid; 200 nM TPB (a PKC activator; Catalog No. 565740; EMD Chemicals, Gibstown, N.J.); 10 μM forskolin (FSK, Sigma), and 100 nM LDN (a BMP receptor inhibitor; Catalog No. 04-0019; Stemgent; San Diego, Calif.) for day 1. On day 2, cells were treated with MCDB-131 medium supplemented with a 1:200 dilution of ITS-X; 4.5 mM Glucose; 1× GlutaMax™; 0.0017 g/ml sodium bicarbonate; 2% fatty acid-free BSA; 0.25 μM SANT-1; 10 ng/ml of Activin A; 1 μM RA; 25 ng/ml FGF7; 0.25 mM ascorbic acid, 200 nM TPB, 10 μM forskolin and 10 nM LDN, then • d) Stage 4 (Pancreatic foregut precursor—2 days); Cells were treated with MCDB-131 medium supplemented with a 1:200 dilution of ITS-X; 4.5 mM Glucose; 1× GlutaMax™; 0.0015 g/ml sodium bicarbonate; 2% fatty acid-free BSA; 0.25 μM SANT-1; 50 nM RA; 50 nM LDN-193189; 10 μM forskolin; 0.25 mM ascorbic acid; and 100 nM TPB for two days, then • e) Stage 5 (Pancreatic endoderm/endocrine—3 days): Stage 4 cells were treated with MCDB-131 medium supplemented with a 1:200 dilution of ITS-X; 20 mM Glucose; 1× GlutaMax™; 0.0015 g/ml sodium bicarbonate; 2% fatty acid-free BSA; 0.25 μM SANT-1; 50 nM RA; 10 μM forskolin; 0.25 mM ascorbic acid for three days, with the addition of 100 nM ALk5 inhibitor SD-208 (disclosed in Molecular Pharmacology 2007, 72:152-161) for days 2-3 only.
At day 1 of stage 5, the factors listed in Table I, below, were spiked into the media and upon completion of S5 (day 3 of stage 5) mRNA was collected for PCR analysis of relevant pancreatic endoderm/endocrine genes. As a control, cultures were treated only with the S5 media listed above. […]

Molecule | expression of somatostatin | expression of ghrelin | expression of glucagon | mRNA expression of insulin | expression of hormones | mRNA expression of NKX6.1
Activin-C: protein factor, R & D Systems catalogue number 4879-AC-010 (protein, UniProt P55103 237-352, looked up) Inhibin beta C chain: GIDCQGGSRMCCRQEFFVDFREIGWHDWIIQPEGYAMNFCIGQCPLHIAGMPGIAASFHTAVLNLLKANTAAGTTGGGSCCVPTARRPLSLLYYDRDSNIVKTDIPDMVVEACGCS | significantly enhanced | suppressing | suppressing | suppressing |  | 
semaphorin 3a: protein factor, R & D Systems catalogue number 1250-S3-025 (protein, UniProt Q14563 21-771, looked up) Semaphorin-3A: NYQNGKNNVPRLKLSYKEMLESNNVITFNGLANSSSYHTFLLDEERSRLYVGAKDHIFSFDLVNIKDFQKIVWPVSYTRRDECKWAGKDILKECANFIKVLKAYNQTHLYACGTGAFHPICTYIEIGHHPEDNIFKLENSHFENGRGKSPYDPKLLTASLLIDGELYSGTAADFMGRDFAIFRTLGHHHPIRTEQHDSRWLNDPKFISAHLISESDNPEDDKVYFFFRENAIDGEHSGKATHARIGQICKNDFGGHRSLVNKWTTFLKARLICSVPGPNGIDTHFDELQDVFLMNFKDPKNPVVYGVFTTSSNIFKGSAVCMYSMSDVRRVFLGPYAHRDGPNYQWVPYQGRVPYPRPGTCPSKTFGGFDSTKDLPDDVITFARSHPAMYNPVFPMNNRPIVIKTDVNYQFTQIVVDRVDAEDGQYDVMFIGTDVGTVLKVVSIPKETWYDLEEVLLEEMTVFREPTAISAMELSTKQQQLYIGSTAGVAQLPLHRCDIYGKACAECCLARDPYCAWDGSACSRYFPTAKRRTRRQDIRNGDPLTHCSDLHHDNHHGHSPEERIIYGVENSSTFLECSPKSQRALVYWQFQRRNEERKEEIRVDDHIIRTDQGLLLRSLQQKDSGNYLCHAVEHGFIQTLLKVTLEVIDTEHLEELLHKDDDGDGSKTKEMSNSMTPSQKVWYRDFMQLINHPNLNTMDEFCEQVWKRDRKQRRQRPGHTPGNSNKWKHLQENKKGRNRRTHEFERAPRSV |  |  |  |  | not affecting | enhanced
Epigen: protein factor, R & D Systems catalogue number 6629-EP-025 (protein, UniProt Q6UW88 23-154, looked up) Epigen: AAVTVTPPITAQQGNWTVNKTEADNIEGPIALKFSHLCLEDHNSYCINGACAFHHELEKAICRCFTGYTGERCEHLTLTSYAVDSYEKYIAIGIGVGLLLSGFLVIFYCYIRKRCLKLKSPYNVCSGERRPL |  |  |  |  | not affecting | enhanced
Activin-A: protein factor, R & D Systems catalogue number 338-AC-010 (protein, UniProt P08476 311-426, looked up) Inhibin beta A chain: GLECDGKVNICCKKQFFVSFKDIGWNDWIIAPSGYHANYCEGECPSHIAGTSGSSLSFHSTVINHYRMRGHSPFANLKSCCVPTKLRPMSMLYYDDGQNIIKKDIQNMIVEECGCS | significantly enhanced | suppressing | suppressing | suppressing |  | 
